This is an account of results in US20220041721A1 (WUHAN YZY BIOPHARMA, published 2022).

One test has as its target T1, monkey CD3 (monkey).
T1 construct: whole, on cells; also called CD3 on monkey CD3 positive T cells
As to the kind of experiment: flow cytometry on monkey CD3 positive T cells. (In general: In flow cytometry, cells or beads pass a laser one at a time.)

Test [1] addresses T2, human CD3 (human, UniProt P07766 23-207). As to the kind of experiment: cell-based or functional assay.
Test [2] concerns the target T2, human CD3. As to the kind of experiment: flow cytometry on human CD3 positive T cells.
The next test deals with T3, Human CD38 (human, UniProt P28907 1-300).
T3 construct: whole, on cells; the assays used the protein on tumor cells
As to the kind of experiment: flow cytometry on CD38 positive tumor cells (MM.1S or RPMI 8226).

For test [3], the target named is T2, human CD3. Description: cell-based or functional assay. This is another data set of the same source.

B1: MS-hCD3-IC15 (bispecific antibody, human IgG1, kappa, N297Q)
scFv: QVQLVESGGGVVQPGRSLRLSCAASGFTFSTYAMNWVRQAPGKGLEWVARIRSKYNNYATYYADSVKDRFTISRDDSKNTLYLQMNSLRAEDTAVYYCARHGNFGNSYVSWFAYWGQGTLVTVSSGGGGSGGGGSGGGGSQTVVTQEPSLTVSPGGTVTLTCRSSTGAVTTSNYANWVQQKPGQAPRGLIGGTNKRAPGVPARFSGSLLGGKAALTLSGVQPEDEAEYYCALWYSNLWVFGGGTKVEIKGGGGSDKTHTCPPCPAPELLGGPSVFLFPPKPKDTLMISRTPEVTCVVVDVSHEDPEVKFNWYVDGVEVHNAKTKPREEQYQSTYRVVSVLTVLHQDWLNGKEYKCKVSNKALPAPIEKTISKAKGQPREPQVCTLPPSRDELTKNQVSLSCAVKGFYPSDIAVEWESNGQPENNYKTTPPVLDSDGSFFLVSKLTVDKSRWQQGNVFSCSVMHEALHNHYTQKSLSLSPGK
heavy: EVKLDETGGGLVQPGRPMKLSCVASGFTFSDYWMNWVRQSPEKGLEWVAQIRNKPYNYETYYSDSVKGRFTISRDDSKSSVYLQMNNLRVEDMGIYYCTGSYYGMDYWGQGTSVTVSSASTKGPSVFPLAPSSKSTSGGTAALGCLVKDYFPEPVTVSWNSGALTSGVHTFPAVLQSSGLYSLSSVVTVPSSSLGTQTYICNVNHKPSNTKVDKKVEPKSCDKTHTCPPCPAPELLGGPSVFLFPPKPKDTLMISRTPEVTCVVVDVSHEDPEVKFNWYVDGVEVHNAKTKPREEQYQSTYRVVSVLTVLHQDWLNGKEYKCKVSNKALPAPIEKTISKAKGQPREPQVYTLPPCRDELTKNQVSLWCLVKGFYPSDIAVEWESNGQPENNYKTTPPVLDSDGSFFLYSKLTVDKSRWQQGNVFSCSVMHEALHNHYTQKSLSLSPGK
light: DVVMTQTPLSLPVSLGDQASISCRSSQSLVHSNGNTYLRWYLQKPGQSPKVLIYKVSNRFSGVPDRFSGSGSGTDFTLKISRVEAEDLGVYFCSQSTHVPWTFGGGTKLEIKRTVAAPSVFIFPPSDEQLKSGTASVVCLLNNFYPREAKVQWKVDNALQSGNSQESVTEQDSKDSTYSLSSTLTLSKADYEKHKVYACEVTHQGLSSPVTKSFNRGEC
As a reminder, the EC50 is the concentration needed to bring the measured effect to its halfway point. B1: the EC50 came to 378 nM with monkey CD3 and 194 nM with human CD3 [2]. Moreover, the “Cytotoxicity EC50 against lung cancer cells H358 (human PBMC 10:1, 48 h); control with CD3 arm only, no tumor antigen arm” value in the test with human CD3 [1] came out at 0.172 mg/L.

B2: Y150-F9-6 (bispecific antibody, human IgG1, lambda)
scFv: EVQLVESGGGLVQPKGSLKLSCAASGFTFNTYAMNWVRQAPGKGLEWVARIRSKYNNYATYYADSVKDRFTISRDDSQSILYLQMNNLKTEDTAMYYCVRHGNFGNSYVSWFAYWGQGTLVTVSSGGGGSGGGGSGGGGSQAVVTQESALTTSPGETVTLTCRSSTGAVTTSNYANWVQEKPDHLFTGLIGGTNKRAPGVPARFSGSLIGDKAALTITGAQTEDEAIYFCALWYSNLWVFGGGTKLTVLGDGDGSDKTHTCPPCPAPEFEGGPSVFLFPPKPKDTLMISRTPEVTCVVVDVSHEDPEVKFNWYVDGVEVHNAKTKPREEQYNSTYRVVSVLTVLHQDWLNGKEYKCKVSNKALPASIEKTISKAKGQPREPQVCTLPPSRDELTKNQVSLSCAVKGFYPSDIAVEWESNGQPENNYKTTPPVLDSDGSFFLVSKLTVDKSRWQQGNVFSCSVMHEALHNHYTQKSLSLSPGK
heavy: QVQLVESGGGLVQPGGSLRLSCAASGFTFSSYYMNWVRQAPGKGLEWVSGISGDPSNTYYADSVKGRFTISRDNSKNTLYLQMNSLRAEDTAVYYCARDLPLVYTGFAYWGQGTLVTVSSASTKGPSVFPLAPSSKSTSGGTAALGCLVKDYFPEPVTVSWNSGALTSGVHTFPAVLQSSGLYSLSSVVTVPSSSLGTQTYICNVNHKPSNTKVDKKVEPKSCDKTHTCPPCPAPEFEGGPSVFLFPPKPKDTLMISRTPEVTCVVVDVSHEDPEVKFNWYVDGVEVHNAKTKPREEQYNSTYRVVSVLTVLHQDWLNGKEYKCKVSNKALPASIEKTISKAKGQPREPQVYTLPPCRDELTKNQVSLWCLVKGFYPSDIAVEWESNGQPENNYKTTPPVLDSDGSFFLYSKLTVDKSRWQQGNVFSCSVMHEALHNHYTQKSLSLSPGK
light: DIELTQPPSVSVAPGQTARISCSGDNLRHYYVYWYQQKPGQAPVLVIYGDSKRPSGIPERFSGSNSGNTATLTISGTQAEDEADYYCQTYTGGASLVFGGGTKLTVLGQPKAAPSVTLFPPSSEELQANKATLVCLISDFYPGAVTVAWKADSSPVKAGVETTTPSKQSNNKYAASSYLSLTPEQWKSHRSYSCQVTHEGSTVEKTVAPTECS
notes: Comparative: anti-CD38 (MOR) Fab arm and anti-CD3 scFv (SP34)-Fc fusion peptide; 150 is used
Turning to B2, the EC50 is 130 nM in the test with monkey CD3, 27.1 nM with Human CD38 and 111 nM with human CD3 [2].

B3: Y150-F9-11 (bispecific antibody, human IgG1, kappa)
scFv: QVQLVESGGGVVQPGRSLRLSCAASGFTFSTYAMNWVRQAPGKGLEWVARIRSKYNNYATYYADSVKDRFTISRDDSKNTLYLQMNSLRAEDTAVYYCARHGNFGNSYVSWFAYWGQGTLVTVSSGGGGSGGGGSGGGGSQTVVTQEPSLTVSPGGTVTLTCRSSTGAVTTSNYANWVQQKPGQAPRGLIGGTNKRAPGVPARFSGSLLGGKAALTLSGVQPEDEAEYYCALWYSNLWVFGGGTKVEIKGRGRGSDKTHTCPPSPAPPVAGPSVFLFPPKPKDTLMISRTPEVTCVVVDVSHEDPEVQFNWYVDGVEVHNAKTKPREEQFNSTFRVVSVLTVVHQDWLNGKEYKCKVSNKGLPAPIEKTISKTKGQPREPQVCTLPPSRDELTKNQVSLSCAVKGFYPSDIAVEWESNGQPENNYKTTPPVLDSDGSFFLVSKLTVDKSRWQQGNVFSCSVMHEALHNHYTQKSLSLSPGK
heavy: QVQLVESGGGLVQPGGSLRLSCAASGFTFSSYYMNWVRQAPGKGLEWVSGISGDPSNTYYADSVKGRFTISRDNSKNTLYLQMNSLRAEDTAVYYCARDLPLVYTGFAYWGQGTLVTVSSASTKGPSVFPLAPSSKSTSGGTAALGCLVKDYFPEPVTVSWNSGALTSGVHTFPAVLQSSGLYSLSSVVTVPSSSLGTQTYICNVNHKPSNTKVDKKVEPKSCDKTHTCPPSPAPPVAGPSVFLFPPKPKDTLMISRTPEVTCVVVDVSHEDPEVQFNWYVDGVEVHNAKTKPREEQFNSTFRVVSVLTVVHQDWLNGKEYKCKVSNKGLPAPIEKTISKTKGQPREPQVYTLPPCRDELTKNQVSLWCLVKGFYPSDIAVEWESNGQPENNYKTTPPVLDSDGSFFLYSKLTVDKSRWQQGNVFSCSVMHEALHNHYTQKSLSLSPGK
light: DIELTQPPSVSVAPGQTARISCSGDNLRHYYVYWYQQKPGQAPVLVIYGDSKRPSGIPERFSGSNSGNTATLTISGTQAEDEADYYCQTYTGGASLVFGGGTKLTVLRTVAAPSVFIFPPSDEQLKSGTASVVCLLNNFYPREAKVQWKVDNALQSGNSQESVTEQDSKDSTYSLSSTLTLSKADYEKHKVYACEVTHQGLSSPVTKSFNRGEC
notes: Anti-CD38 (MOR) Fab arm with CL Lc1 and anti-CD3 scFv (VH2a/VL5)-Fc fusion peptide
With B3, the EC50 is 461 nM with monkey CD3, 106 nM with Human CD38 and 437 nM with human CD3 [2]. Also, the “EC50 values of T-cell activation (CD3 and CD69 dual positive cells; human PBMC with MC/CAR target cells 5:1, 48 h)” value with human CD3 [3] is 0.0835 nM.
